{
  "source": "patent US11786578B2",
  "about": "“Modified relaxin polypeptides and their uses” (AMBRX, INC., priority 2010, dated 2023)",
  "molecules": {"B1": {"name": "INSL3: endogenous ligand for RXFP2 (insulin like 3 protein), R&D Systems (protein, UniProt P51460 21-55; P51460 106-131, looked up)", "Insulin-like 3 B chain": "LGPAPTPEMREKLCGHHFVRALVRVCGGPRWSTEA", "Insulin-like 3 A chain": "AAATNPARYCCLSGCTQQDLLTLCPY"}},
  "key": {"[1]": {"settings": "IV; cited from earlier work"}, "in vivo": {"experiment": "in vivo", "settings": "for Mean Conc.: male SD rats", "description": "This example evaluates the pharmacokinetic properties of wild-type (WT) Relaxin compound following a single subcutaneous injection in SD rats.\nSD Rats were received from Charles River Laboratories (CRL) at approximately […] of age (approximately 280 g at study start). The animals were received having been jugular vein catheterized at CRL. Animals then acclimated for 3 days prior to being placed on study.\nAnimals received a single subcutaneous injection on day 1 and PK samples were collected over the subsequent 12 hours. Blood samples were taken from animals treated with WT rhRelaxin for analysis of serum concentration according to the following sampling schedule (sampling times are approximate): Day 1: pre-dose, 0.33, 0.66, 1, 1.5, 2, 3, 4, 5, 6, 9 and 12 hours post-dose.\nCompound concentrations were measured using a bridging ECLA based on an assay which was developed at Ambrx. Concentrations were calculated using a standard curve generated from the corresponding dosed compound and reported in an excel spreadsheet format (see appendix). Pharmacokinetic parameters were estimated using the modeling program WinNonlin (Pharsight, version 5.1). Noncompartmental analysis for individual animal data with linear-up/log-down trapezoidal integration was used, and concentration data was uniformly weighted.\nConcentration versus time curves were evaluated by non-compartmental analysis (Pharsight, version 4.1). N=5 rats per group, terminal HL, terminal half-life; Cmax, maximum serum concentration measured; Tmax, time at which Cmax occurred: AUCinf, area under the concentration-time curve for all serum sample/timepoints extrapolated to infinity; Cl, apparent total serum clearance; Vz, apparent volume of distribution during terminal phase. Numbers are mean with SD in parentheses."}, "[2]": {"test_system": "primary human cardiac fibroblasts (NHCF-V)", "settings": "1 nM", "procedure": "NHCF-V cells were isolated from the ventricle of normal, adult heart tissue. Cells stained positive for smooth muscle α-actin and expressed ≥90% collagen I and ≤10% Von Willebrand factor VIII. Cells at passages 3 through 6 were used for the real-time quantitative reverse transcription-polymerase chain reaction (qRT-PCR) studies. Cells were cultured in FGM™-3 BulletKit™ (Cat. #: CC-4526, Lonza) containing 10% FBS complete medium. At confluence, cells were split and cultured in 6-well plates at a density of 150,000/well for 24 hr in complete medium.\nAlter treatment, cells in 6-well plates were harvested or total RN A extraction and qRT-PCR analysis. Total RNA was extracted using the RNeasy Mini Kit (Cat. #: 74106, Qiagen) according to the manufacturer's protocols including the on-column removal of genomic cDNA. Real-time qRT-PCR was performed in a two-step manner; cDNA synthesis and real-time detection were carried out in a PTC-100 Thermal Cycler (MJ Research) and an ABI Prism 7700 Sequence Detection System (Applied Biosystems), respectively. TaqMan Universal PCR Master Mix (Applied Biosystems) was used in subsequent PCR reactions according to the manufacturer's protocols. All qRT-PCR reactions were performed in duplicate. […] Data were analyzed for significance by two-way ANOVA followed by a Bonferroni's multiple comparison test using GraphPad Prism Software, version 5.0."}, "human RXFP4": {"molecular_target": "T1, human RXFP4 (Homo sapiens, UniProt Q8TDU9)", "T1 construct": "expressed in transfected cells", "T1 sequence (Q8TDU9 whole entry)": "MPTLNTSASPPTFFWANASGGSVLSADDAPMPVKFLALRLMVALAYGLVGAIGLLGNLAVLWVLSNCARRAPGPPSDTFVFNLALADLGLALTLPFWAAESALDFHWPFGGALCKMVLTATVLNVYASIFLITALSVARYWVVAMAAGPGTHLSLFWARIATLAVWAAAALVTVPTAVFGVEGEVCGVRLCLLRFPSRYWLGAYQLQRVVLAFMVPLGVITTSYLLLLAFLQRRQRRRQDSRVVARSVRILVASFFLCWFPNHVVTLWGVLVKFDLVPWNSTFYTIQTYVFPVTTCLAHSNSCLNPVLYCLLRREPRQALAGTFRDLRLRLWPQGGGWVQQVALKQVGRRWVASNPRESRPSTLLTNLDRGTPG", "experiment": "Inhibition of forskolin-induced cAMP in human RXFP4/CHO-K1 stable line", "type": "cell-based", "settings": "CHO-K1 stable line, inhibition of forskolin-induced cAMP", "description": "(§1) The RXFP cDNAs, RXFP family members, as well as species orthologs, were obtained from commercially available cDNA clones or amplified from tissue RNAs as follows. Human RXFP1: A cDNA clone was obtained from OpenBiosystems (MHS4426-99239031. Human RXFP2: A cDNA clone for transcript variant 1 was obtained from OpenBiosystems (OHS4559-99620528). Cynomolgus monkey RXFP1: The cDNA was cloned out of Mauritian cyno brain RNA by RT-PCR using the following primers: forward: 5′-[…]-3′ (SEQ ID NO: 37); reverse: 5′-[…]-3′ (SEQ ID NO: 38). Dog RXFP1: The cDNA was cloned out of dog brain RNA by RT-PCR using the following primers: forward: 5′-[…]-3′ (SEQ ID NO: 39); reverse: 5′-[…]-3′ (SEQ ID NO: 40). Rat RXFP1: The cDNA was cloned out of Sprague Dawley rat brain RNA by RT-PCR using the following primers: forward: 5′-[…]-3′ (SEQ ID NO: 41); reverse: 5′-[…]-3 (SEQ ID NO: 42)′. Human RXFP3: A Gateway entry clone in vector pDONR221 was obtained from Invitrogen (IOH28381). Human RXFP4: A Gateway entry clone in vector pDONR201 was obtained. Mouse RXFP1: A Gateway entry clone in vector pDONR223 was obtained from OpenBiosystems (OMM4760-101549000). Using standard procedures (Gateway LR recombination), the RXFP entry clones were transferred into expression vector pEF-DEST51 (Invitrogen). In contrast to the all other RXFP clones, human RXFP4 was transferred into pcDNA3.1 (Invitrogen). For each construct, the RXFP cDNA, as well as its proper insertion into the expression vector, was verified by DNA sequencing.\nCHO-K1 cells (ATCC #CRL-9618) were prepared for stable line generation by propagating at 37° C. with 5% CO2 in F-12 plus GlutaMAX-I medium (GIBCO #31765) supplemented with 10% fetal bovine heat-inactivated serum (Invitrogen #16140), and 1× Antibiotic-Antimycotic (GIBCO #15240-096). CHO-K1 cells were transfected with 12 μg of the appropriate expression construct plasmid using the FuGENE® 6 reagent (Roche #11814443 001) and the protocol provided by the manufacturer. One day post-transfection cells were replated into medium containing 10 μg of Blasticidin S HCl per mL (GIBCO #A11139-02). […]"}, "human RXFP3": {"molecular_target": "T2, human RXFP3 (Homo sapiens, UniProt Q9NSD7)", "T2 sequence (Q9NSD7 1-469)": "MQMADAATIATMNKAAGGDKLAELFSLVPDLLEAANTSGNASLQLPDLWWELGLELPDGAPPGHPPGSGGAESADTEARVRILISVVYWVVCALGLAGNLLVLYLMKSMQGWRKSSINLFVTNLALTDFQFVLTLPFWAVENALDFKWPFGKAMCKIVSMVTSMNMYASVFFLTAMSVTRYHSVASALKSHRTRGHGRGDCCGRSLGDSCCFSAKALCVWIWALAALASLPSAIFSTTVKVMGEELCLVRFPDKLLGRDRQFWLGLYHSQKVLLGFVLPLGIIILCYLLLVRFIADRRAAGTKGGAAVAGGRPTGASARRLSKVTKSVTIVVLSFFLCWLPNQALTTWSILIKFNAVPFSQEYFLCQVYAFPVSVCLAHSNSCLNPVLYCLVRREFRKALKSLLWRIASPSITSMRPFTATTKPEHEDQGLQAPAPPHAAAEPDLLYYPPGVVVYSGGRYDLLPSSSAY", "experiment": "Inhibition of forskolin-induced cAMP in human RXFP3/CHO-K1 stable line", "type": "cell-based", "settings": "CHO-K1 stable line", "description": "as §1, with “For each construct, the RXFP cDNA, as well as its proper insertion into the expression vector, was verified by DNA sequencing.” left out"}, "human RXFP2 [3]": {"molecular_target": "T3, human RXFP2 (Homo sapiens, UniProt Q8WXD0)", "T3 sequence (Q8WXD0 whole entry)": "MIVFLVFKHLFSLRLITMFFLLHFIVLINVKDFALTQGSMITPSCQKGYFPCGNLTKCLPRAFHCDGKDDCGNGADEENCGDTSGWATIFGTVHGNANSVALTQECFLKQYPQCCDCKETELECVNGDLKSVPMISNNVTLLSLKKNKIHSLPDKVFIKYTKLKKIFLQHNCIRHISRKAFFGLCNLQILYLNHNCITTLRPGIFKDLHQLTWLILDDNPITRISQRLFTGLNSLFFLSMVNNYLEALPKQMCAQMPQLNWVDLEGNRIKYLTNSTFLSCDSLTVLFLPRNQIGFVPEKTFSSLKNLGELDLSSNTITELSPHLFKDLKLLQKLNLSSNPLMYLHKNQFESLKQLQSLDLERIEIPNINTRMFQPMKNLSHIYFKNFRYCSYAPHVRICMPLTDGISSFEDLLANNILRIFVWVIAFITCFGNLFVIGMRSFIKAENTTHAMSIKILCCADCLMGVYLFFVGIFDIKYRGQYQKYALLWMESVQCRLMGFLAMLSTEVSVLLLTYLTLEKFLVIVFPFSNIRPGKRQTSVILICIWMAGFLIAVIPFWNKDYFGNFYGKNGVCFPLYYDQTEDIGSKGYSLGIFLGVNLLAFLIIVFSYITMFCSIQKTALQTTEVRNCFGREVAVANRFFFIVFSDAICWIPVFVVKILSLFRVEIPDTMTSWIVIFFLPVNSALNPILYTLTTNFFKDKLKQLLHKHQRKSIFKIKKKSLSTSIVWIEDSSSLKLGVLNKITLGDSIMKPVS", "settings": "literature value; read-out: EC50 value reported in the literature, human RXFP2; cited from earlier work"}, "human RXFP2 [4]": {"molecular_target": "T3, human RXFP2", "experiment": "cAMP assay in human RXFP2/CHO-K1 stable line", "type": "cell-based", "settings": "CHO-K1 stable line", "description": "as §1, with “For each construct, the RXFP cDNA, as well as its proper insertion into the expression vector, was verified by DNA sequencing.” left out"}, "[5]": {"settings": "0.5 mg/kg SC, SD rats, mean (SD)"}, "[6]": {"settings": "Sprague-Dawley, rat, serum, sc, 0.5 mg/kg"}},
  "note": "Where two headings read alike, the source gives them in different places.",
  "data": [
    {"molecule": "CC[C@H](C)[C@@H]1NC(=O)[C@H](C)NC(=O)[C@H]([C@@H](C)CC)NC(=O)[C@H](CCC(N)=O)NC(=O)[C@H](C)NC(=O)[C@H](CCCNC(=N)N)NC(=O)[C@H](C(C)C)NC(=O)[C@H](CC(C)C)NC(=O)[C@H](CCC(=O)O)NC(=O)[C@H](CCCNC(=N)N)NC(=O)CNC(=O)[C@@H](NC(=O)[C@H](CC(C)C)NC(=O)[C@H](CCCCN)NC(=O)[C@@H](NC(=O)[C@@H](NC(=O)[C@H](CCC(=O)O)NC(=O)[C@H](CCC(=O)O)NC(=O)[C@H](CCSC)NC(=O)[C@H](Cc2c[nH]c3ccccc23)NC(=O)[C@H](CO)NC(=O)[C@@H](N)CC(=O)O)C(C)C)[C@@H](C)CC)CSSC[C@@H]2NC(=O)[C@@H](NC(=O)[C@H](CCCCN)NC(=O)[C@H](CC(N)=O)NC(=O)[C@H](C)NC(=O)[C@H](CC(C)C)NC(=O)[C@H](C)NC(=O)[C@H](CO)NC(=O)[C@H](Cc3ccc(O)cc3)NC(=O)[C@H](CC(C)C)NC(=O)[C@@H](N)CCC(N)=O)CSSC[C@H](NC(=O)CNC(=O)[C@H](C(C)C)NC(=O)[C@H](Cc3c[nH]cn3)NC2=O)C(=O)N[C@@H]([C@@H](C)O)C(=O)N[C@@H](CCCCN)C(=O)N[C@@H](CCCNC(=N)N)C(=O)N[C@@H](CO)C(=O)N[C@@H](CC(C)C)C(=O)N[C@@H](C)C(=O)N[C@@H](CCCNC(=N)N)C(=O)N[C@@H](Cc2ccccc2)C(=O)N[C@H](C(=O)O)CSSC[C@@H](C(=O)NCC(=O)N[C@@H](CCSC)C(=O)N[C@@H](CO)C(=O)N[C@H](C(=O)N[C@@H](Cc2c[nH]c3ccccc23)C(=O)N[C@@H](CO)C(=O)O)[C@@H](C)O)NC1=O", "note": "[RLX-D-WT]", "values": [
      {"measurement": "half-life of intravenously administrated Relaxin 2 in humans", "setting": "[1]", "value": "less than 10 minutes"},
      {"measurement": "CL (mL/hr)", "setting": "in vivo; [5]", "value": "1006 (185) mL/hr"},
      {"measurement": "Vz (mL/kg)", "setting": "in vivo; [5]", "value": "1159 (284) mL/kg"},
      {"measurement": "AUC(0-inf)", "setting": "in vivo; [6]", "value": 509, "unit": "ng·h/mL"},
      {"measurement": "Cmax", "setting": "in vivo; [6]", "value": 258, "unit": "ng/mL"},
      {"measurement": "MRT", "setting": "in vivo; [6]", "value": 93.6, "unit": "min"},
      {"measurement": "Tmax", "setting": "in vivo; [6]", "value": 30, "unit": "min"},
      {"measurement": "half-life", "setting": "in vivo; male, SD, rat, serum, sc, 0.5 mg/kg", "value": 48, "unit": "min"},
      {"measurement": "Mean Conc.", "setting": "in vivo; serum, 0.5 mg/kg SC, 6 hr", "value": "BQL"},
      {"measurement": "Mean Conc.", "setting": "in vivo; serum, 0.5 mg/kg SC, 9 hr", "value": "BQL"},
      {"measurement": "Mean Conc.", "setting": "in vivo; serum, 0.5 mg/kg SC, 12 hr", "value": "BQL"},
      {"measurement": "Mean Conc.", "setting": "in vivo; serum, 0.5 mg/kg SC, pre-dose (PD)", "value": "BQL"}
    ]},
    {"molecule": "CC[C@H](C)[C@@H]1NC(=O)[C@H](C)NC(=O)[C@H]([C@@H](C)CC)NC(=O)[C@H](CCC(N)=O)NC(=O)[C@H](C)NC(=O)[C@H](CCCNC(=N)N)NC(=O)[C@H](C(C)C)NC(=O)[C@H](CC(C)C)NC(=O)[C@H](CCC(=O)O)NC(=O)[C@H](CCCNC(=N)N)NC(=O)CNC(=O)[C@@H](NC(=O)[C@H](CC(C)C)NC(=O)[C@H](CCCCN)NC(=O)[C@@H](NC(=O)[C@@H](NC(=O)[C@H](CCC(=O)O)NC(=O)[C@H](CCC(=O)O)NC(=O)[C@H](CCSC)NC(=O)[C@H](Cc2c[nH]c3ccccc23)NC(=O)[C@H](CO)NC(=O)[C@@H](N)CC(=O)O)C(C)C)[C@@H](C)CC)CSSC[C@@H]2NC(=O)[C@@H](NC(=O)[C@H](CCCCN)NC(=O)[C@H](CC(N)=O)NC(=O)[C@H](C)NC(=O)[C@H](CC(C)C)NC(=O)[C@H](C)NC(=O)[C@H](CO)NC(=O)[C@H](Cc3ccc(O)cc3)NC(=O)[C@H](CC(C)C)NC(=O)[C@@H](N)CCC(N)=O)CSSC[C@H](NC(=O)CNC(=O)[C@H](C(C)C)NC(=O)[C@H](Cc3c[nH]cn3)NC2=O)C(=O)N[C@@H]([C@@H](C)O)C(=O)N[C@@H](CCCCN)C(=O)N[C@@H](CCCNC(=N)N)C(=O)N[C@@H](CO)C(=O)N[C@@H](CC(C)C)C(=O)N[C@@H](C)C(=O)N[C@@H](CCCNC(=N)N)C(=O)N[C@@H](Cc2ccccc2)C(=O)N[C@H](C(=O)O)CSSC[C@@H](C(=O)NCC(=O)N[C@@H](CCSC)C(=O)N[C@@H](CO)C(=O)N[C@H](C(=O)N[C@@H](Cc2c[nH]c3ccccc23)C(=O)N[C@@H](CO)C(=O)O)[C@@H](C)O)NC1=O", "note": "[WT-RLX]", "values": [
      {"measurement": "Maximal inhibition of collagen type I expression vs TGF-β only treatment", "setting": "[2]", "value": "≥ 70", "unit": "%"},
      {"measurement": "cAMP Assay EC50, Human RXFP4", "setting": "human RXFP4", "value": "essentially inactive"},
      {"measurement": "cAMP Assay EC50, Human RXFP3", "setting": "human RXFP3", "value": "essentially inactive"}
    ]},
    {"molecule": "B1", "values": [
      {"measurement": "EC50", "setting": "human RXFP2 [3]", "value": 0.58, "unit": "nM"},
      {"measurement": "EC50", "setting": "human RXFP2 [4]", "value": "0.46 ± 0.04", "unit": "nM"}
    ]}
  ]
}
